Laboratory results reported in article PMC3276543, “Structural Basis of Transcriptional Gene Silencing Mediated by Arabidopsis MOM1” (PLoS Genetics, 2012).

Molecular target: the molecule itself
Assay: crystal structure; hanging drop vapor diffusion at 4°C, 0.1 M Tris pH 8.5, 0.3 M magnesium formate dihydrate; SAD phasing with seleno-methionine protein; native data to 3.2 Å

B1: MOM1 fragment corresponding to amino acid positions 1700 to 1814 (CMM2-containing protein fragment) (domain or fragment, Arabidopsis thaliana, UniProt Q9M658 1700-1814, looked up)
chain: HSAGVTALVPSLLNNGTEQIAVQPVPQIPFPVFNDPFLHELEKLRRESENSKKTFEEKKSILKAELERKMAEVQAEFRRKFHEVEAEHNTRTTKIEKDKNLVIMNKLLANAFLSK
notes: MORPHEUS' MOLECULE1 (MOM1), Arabidopsis thaliana, protein of 2001 amino acids, residues 1700-1814; residues 1729-1811 are ordered in the crystal; A seleno-methionine-containing form (E. coli strain 834) was used for phasing only; the 3.2 A data set is of the native protein; also called CMM2 protein fragment; CMM2 domain
With B1 the “stoichiometry N” value was 2.
